According to article PMC8564726, “Heterodimerization of H3K9 histone methyltransferases G9a and GLP activates methyl reading and writing capabilities” (The Journal of Biological Chemistry, 2021):
“Also recorded” adds a separate entry of the source. Like-named read-outs stand apart in the source and are kept apart here.

B1: G9a-G9a: homodimer of G9a truncated to the C-terminal ANK and SET domains (ANK-SET) (protein)
chain: MRGLPRGRGLMRARGRGRAAPTGGRGRGRGGAHRGRGRPRSLLSLPRAQASWAPQLPAGLTGPPVPCLPSQGEAPAEMGALLLEKEPRGAAERVHSSLGDTPQSEETLPKANPDSLEPAGPSSPASVTVTVGDEGADTPVGAASLIGDEPESLEGDGGRIVLGHATKSFPSSPSKGGACPSRAKMSMTGAGKSPPSVQSLAMRLLSMPGAQGAATAGPEPSPATTAAQEGQPKVHRARKTMSKPSNGQPPIPEKRPPEVQHFRMSDDMHLGKVTSDVAKRRKLNSGSLSEDLGSAGGSGDIILEKGEPRPLEEWETVVGDDFSLYYDAYSVDERVDSDSKSEVEALAEQLSEEEEEEEEEEEEEEEEEEEEEEEEEDEESGNQSDRSGSSGRRKAKKKWRKDSPWVKPSRKRRKREPPRAKEPRGVNGVGSSGPSEYMEVPLGSLELPSEGTLSPNHAGVSNDTSSLETERGFEELPLCSCRMEAPKIDRISERAGHKCMATESVDGELLGCNAAILKRETMRPSSRVALMVLCEAHRARMVKHHCCPGCGYFCTAGTFLECHPDFRVAHRFHKACVSQLNGMVFCPHCGEDASEAQEVTIPRGDGGTPPIGTAAPALPPLAHDAPGRADTSQPSARMRGHGEPRRPPCDPLADTIDSSGPSLTLPNGGCLSAVGLPPGPGREALEKALVIQESERRKKLRFHPRQLYLSVKQGELQKVILMLLDNLDPNFQSDQQSKRTPLHAAAQKGSVEICHVLLQAGANINAVDKQQRTPLMEAVVNNHLEVARYMVQLGGCVYSKEEDGSTCLHHAAKIGNLEMVSLLLSTGQVDVNAQDSGGWTPIIWAAEHKHIDVIRMLLTRGADVTLTDNEENICLHWASFTGSAAIAEVLLNAQCDLHAVNYHGDTPLHIAARESYHDCVLLFLSRGANPELRNKEGDTAWDLTPERSDVWFALQLNRKLRLGVGNRAVRTEKIICRDVARGYENVPIPCVNGVDGEPCPEDYKYISENCETSTMNIDRNITHLQHCTCVDDCSSSNCLCGQLSIRCWYDKDGRLLQEFNKIEPPLIFECNQACSCWRSCKNRVVQSGIKVRLQLYRTAKMGWGVRALQTIPQGTFICEYVGELISDAEADVREDDSYLFDLDNKDGEVYCIDARYYGNISRFINHLCDPNIIPVRVFMLHQDLRFPRIAFFSSRDIRTGEELGFDYGDRFWDIKSKYFTCQCGSEKCKHSAEAIALEQSRLARLDPHPELLPDLSSLPPINT
B2: GLP-GLP: homodimer of GLP truncated to the C-terminal ANK and SET domains (ANK-SET) (protein)
chain: MAAADAEQAVLAKQETKQDCCMKTELLREDTPMAADEGSTEKQEGETPMAADGETNGSCEKSGDPSHLNAPKHTQENTRASPQEGTNRVSRVAENGVSERDTEVGKQNHVTADDFMQTSVIGSNGYFLNKPALQGQPLRTPNILTSSLPGHAAKTLPGGASKCRTLSALPQTPTTAPTVPGEGSADTEDRKPTASGTDVRVHRARKTMPKSILGLHAASKDHREVQDHKEPKEDINRNISECGRQQLLPTFPALHQSLPQNQCYMATTKSQTACLPFVLAAAVSRKKKRRMGTYSLVPKKKTKVLKQRTVIEMFKSITHSTVGAKGEKALDDSALHVNGESLEMDSEDEDSDELEDDEDHGAEQAAAFPTEDSRTSKESMSETDRAAKMDGDSEEEQESPDTGEDEDGGDESDLSSESSIKKKFLKRRGKTDSPWIKPARKRRRRSRKKPSSMLGSEACKSSPGSMEQAALGDSAGYMEVSLDSLDLRVRGILSSQTENEGLASGPDVLGTDGLQEVPLCSCRMETPKSREISTLANNQCMATESVDHELGRCTNSVVKYELMRPSNKAPLLVLCEDHRGRMVKHQCCPGCGYFCTAGNFMECQPESSISHRFHKDCASRVNNASYCPHCGEEASKAKEVTIAKADTTSTVTLAPGQEKSLAAEGRADTTTGSIAGAPEDERSQSTAPQAPECFDPAGPAGLVRPTSGLSQGPGKETLESALIALDSEKPKKLRFHPKQLYFSARQGELQKVLLMLVDGIDPNFKMEHQSKRSPLHAAAEAGHVDICHMLVQAGANIDTCSEDQRTPLMEAAENNHLDAVKYLIKAGAQVDPKDAEGSTCLHLAAKKGHYDVVQYLLSNGQMDVNCQDDGGWTPMIWATEYKHVELVKLLLSKGSDINIRDNEENICLHWAAFSGCVDIAEILLAAKCDLHAVNIHGDSPLHIAARENRYDCVVLFLSRDSDVTLKNKEGETPLQCASLSSQVWSALQMSKALRDSAPDKPVAVEKTVSRDIARGYERIPIPCVNAVDSELCPTNYKYVSQNCVTSPMNIDRNITHLQYCVCVDDCSSSTCMCGQLSMRCWYDKDGRLLPEFNMAEPPLIFECNHACSCWRNCRNRVVQNGLRARLQLYRTQDMGWGVRSLQDIPLGTFVCEYVGELISDSEADVREEDSYLFDLDNKDGEVYCIDARFYGNVSRFINHHCEPNLVPVRVFMSHQDLRFPRIAFFSTRLIQAGEQLGFDYGERFWDVKGKLFSCRCGSSKCRHSSAALAQRQASAAQEPQENGLPDTSSAAAADPL

What was measured:
[1] = test system: H3_1–20 K9me1 peptide; assay: Fluorescence polarization binding to H3K9me1 peptide
Procedure: (§1) Polarization assays with fluoresceinated H3_1–20 K9me1 or K9me2 peptides, 147 bp 601 DNA template, and core nucleosomes were performed and Kd values estimated as described ([11]) with the following modifications: The reaction buffer was 100 mM Tris pH 8, 100 mM KCl, 1 mM MgCl2, 20 μM ZnSO4, 10 mM BME, 0.1% NP-40. The concentration of peptides and nucleosomes was 150 nM and 200 nM for DNA. Polarization measurements were conducted on a Biotek Cytation 5 (peptide and nucleosome) or Molecular Devices Spectramax (DNA) plate reader with low-volume plates (Corning) in either 10 μl (peptide, nucleosome) or 40 μl (DNA) total volume.

[2] = test system: H3_1–20 peptide; assay: H3 tail peptide methylation kinetics (multiple turnover); type: biochemical; conditions: Michaelis–Menten, 9 μM 3H-SAM + 1000 μM cold SAM, 0.4 to 0.8 μM enzyme, pH 8, duplicates
Procedure: (§2) Substrate peptides or nucleosomes were mixed in a solution containing 9 μM tritiated S-Adenosyl Methionine (SAM, PerkinElmer) cofactor, and reactions were initiated upon addition of 0.4 to 0.8 μM enzyme. Peptide reactions were supplemented with 1000 μM cold SAM to fully saturate the SAM-binding pocket (Fig. S3). Due to signal limitations, nucleosome reactions were not supplemented with SAM (see Supporting methods). Reactions were run in 100 mM Tris pH 8, 100 mM KCl, 1 mM MgCl2, 20 μM ZnSO4, 10 mM BME and quenched with laemmli buffer. Peptide reactions were performed as described ([11]). Nucleosome methylation reactions were read out via autoradiography as described ([11]), except that proteins were separated on an 18% SDS PAGE gel.
All methylation reactions (except Fig. S4A) were performed under Multiple Turnover conditions ([25]). To determine initial rates, methylation time courses were traced at various concentrations of H3K9-containing substrate while keeping the concentration of SAM and enzyme constant. Plots of initial rate versus concentration H3K9 substrate measured in duplicate or triplicate were fit to V = Vmax∗[S]/(KM + [S]) using Prism software to extract KM and kcat (or kobs) values as well as the 95% confidence interval bounds of the fit. See Supporting methods for special considerations for nucleosome kinetics.

[3] = target: unmethylated (H3K9me0) mononucleosomes; assay: Fluorescence polarization binding to unmethylated mononucleosome; conditions: for Kd: 147 bp 601 DNA 5ʹ fluorescein-labeled nucleosomes, 150 nM, pH 8, 100 mM KCl, 0.1% NP-40, 95% CI (μM): G9a 6.4-8.6, G9a-GLP 5.6-7.6, GLP-GLP 17.4-41.5, read-out: Kd, unmethylated (me0) mononucleosome
Description: (§3) Histone proteins and nucleosomes were purified as described ([11], [26]) with modifications (see Supporting methods). For fluorescence polarization, nucleosomes were reconstituted with a 5ʹ fluoresceinated DNA template. H3K9 dimethylation was installed via Methyl-Lysine Analog (MLA) technology as described ([10], [26]). K9 MLA-monomethylated H3 was purchased from Active Motif. H3K27A was introduced by site-directed mutagenesis and purified as described ([26]).
as §1

[4] = test system: H3K9me2 dimethylated mononucleosomes; assay: Fluorescence polarization binding to H3K9me2 mononucleosome
Description: as §3, §1

[5] = test system: H3K9me1 monomethylated mononucleosomes; assay: Fluorescence polarization binding to H3K9me1 mononucleosome
Description: as §3, §1

[6] = test system: H3_1–20 K9me2 peptide; assay: Fluorescence polarization binding to H3K9me2 peptide
Procedure: as §1

[7] = test system: 10-nucleosome arrays; assay: Nucleosome array methylation, initial rate; type: biochemical; conditions: 2 μM histone tails, nonsaturating (Fig. 3H)
Procedure: as §2
All methylation reactions (except Fig. S4A) were performed under Multiple Turnover conditions ([25]). […]
(§4) Detailed E. coli protein expression, purification, and tag cleavage methods Cells co- expressing His and MBP constructs were lysed on ice via sonication in lysis buffer (100mM Tris pH 8, 300mM NaCl, 10% glycerol (v/v), 0.1% Tween-20, with freshly added 1mM β-mercaptoethanol (BME), 1mM PMSF, 5mM Benzamidine, 200µM Leupeptin, Aproptinin, Pepstatin, Phenantroline). […] All protein constructs were quantified using SDS page with BSA standards and Sypro Red stain. […]

[8] = test system: mononucleosome (core nucleosome); assay: Mononucleosome methylation kinetics (multiple turnover); type: biochemical; conditions: initial rates, 10 μM histone tails (Fig. 3F)
Description: as §3
Substrate peptides or nucleosomes were mixed in a solution containing 9 μM tritiated S-Adenosyl Methionine (SAM, PerkinElmer) cofactor, and reactions were initiated upon addition of 0.4 to 0.8 μM enzyme. Peptide reactions were supplemented with 1000 μM cold SAM to fully saturate the SAM-binding pocket (Fig. S3). […] Nucleosome methylation reactions were read out via autoradiography as described ([11]), except that proteins were separated on an 18% SDS PAGE gel. […]
as §4

Molecule	affinity for H3K9me1 peptide, in words ([1]; listed as G9a)	kcat, H3_1–20 peptide ([2]; 95% CI: G9a-G9a 24.6-34.6, GLP-GLP 9.5-15.5, G9a-GLP 26.0-34.5, G9aS-GLP 20.5-28.3, listed as G9a)	Kd [3]	binding to H3K9me2 nucleosomes, in words [4]	binding to H3K9me1 nucleosomes, in words [5]	affinity for H3K9me2 peptide, in words ([6]; listed as G9a)	initial rate on nucleosome arrays, in words [7]	affinity for H3K9me1 peptide, in words [1]	affinity for H3K9me1 peptide, in words ([1]; listed as GLP)	kcat, H3_1–20 peptide ([2]; 95% CI: G9a-G9a 24.6-34.6, GLP-GLP 9.5-15.5, G9a-GLP 26.0-34.5, G9aS-GLP 20.5-28.3, listed as GLP)	binding to nucleosomes, in words [3]	activity on mononucleosomes near saturation, in words [8]	reduced binding to me2 peptides (fold) ([6]; GLP ANK-SET homodimer, reduction as worded (reference me1 binding or ANK alone not stated))
B1	no discernable affinity for me1 or me2 peptides; also recorded: does not recognize H3K9me1/2 peptides	~0.55 s⁻¹	6 to 7 µM	decreases compared with unmethylated nucleosomes	decreases compared with unmethylated nucleosomes	no discernable affinity for me1 or me2 peptides; also recorded: does not recognize H3K9me1/2 peptides	–	–	–	–	–	–	–
B2	–	–	26.3 µM	–	binds relatively tightly to H3K9me1	–	slowest	can recognize H3K9me1	binds H3K9me1 peptides tightly	~0.233 s⁻¹	binds poorly to nucleosomes	slowest of the three enzyme constructs	12.5 times
